Source: the supplement of paper PMC12764529
± gives the half width of the 95% confidence interval.

Key:
[1] = folding stability dG unfold from trypsin proteolysis; higher = more stable
In short: (§1)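 Unfolding free energy was derived, per protease or combined, by relating Bayesian-fitted K50 values from sequencing counts to a sequence-predicted unfolded-state K50 and a shared folded-state K50. The underlying digests exposed cysteine-free mini-proteins under 80 residues, in a PA-tagged cDNA display construct, to trypsin and chymotrypsin at 11 threefold-diluted concentrations and to a no-protease condition. A filter kept only designs with AlphaFold2 dimer inter-PAE above 15.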

[2] = folding stability dG unfold (combined trypsin and chymotrypsin); higher = more stable
In short: as §1

[3] = folding stability dG unfold from chymotrypsin proteolysis; higher = more stable
In short: as §1

Sequence | folding stability dG unfold [1] | folding stability dG unfold [2] | folding stability dG unfold [3]
SAGGMPLVELEIVLPKEELEKLEEALRKLGYKVVKIEVVEYDPENDLVRVRIVLEKPMTLEELKKALKSAGG [r13_725_TrROS_Hall] | 3.72 ± 0.11 kcal/mol | 4.63 ± 0.61 kcal/mol | 4.74 ± 0.18 kcal/mol
SAGGMPPENIKEITEVERNPDGMKEITIEMEDPELAKQGNPEQVDQMAEWLQDEFPDRGIPVTIEPGPSAGG [r13_243_TrROS] | 0.514 ± 0.081 kcal/mol | 0.0457 ± 0.28 kcal/mol | -0.435 ± 0.28 kcal/mol
SAGGMPPGYRVVLVTKEVETVTFEKKPGNENEYTTTPKIVPREEVVEVTSPEVLAELEAEGYEVTPASAGGS [r8_482_JUSTAS] | 0.00788 ± 0.031 kcal/mol | -0.0223 ± 0.11 kcal/mol | -0.154 ± 0.17 kcal/mol
SAGGMPPVKVPVKVTISMKDPKTGKTFTVPVEKVATSEEDLEEIKKEVEELAKELKEKGYKEIEIKIESAGG [r13_360_JUSTAS] | 2.14 ± 0.061 kcal/mol | 2.87 ± 0.1 kcal/mol | 3.14 ± 0.08 kcal/mol
SAGGMPTTSSSAVKLDGGSDSVTTTTLPDGSRVVYIVSSDGKVYKATVTGGTTTWTEVKTVPPAELSSAGGS [r16_48_JUSTAS] | 1.53 ± 0.031 kcal/mol | 2.13 ± 0.051 kcal/mol | 2.406 ± 0.018 kcal/mol
SAGGMPVTVEITVDLVLDPRYRPRPVYPPGETWREPERRVLPVTFTATFGDPEDAERAAVELLRALGVSAGG [r13_35_TrMRF] | 0.866 ± 0.041 kcal/mol | 1.45 ± 0.062 kcal/mol | 1.73 ± 0.032 kcal/mol
SAGGMPVTVTLDLSDLTPEEIERLLTEAVEAHPDPAAVTVRVKTDDPALEAAVRAAAEALPAVAVTLESAGG [r13_718_JUSTAS] | -0.86 ± 0.54 kcal/mol | 0.0912 ± 0.21 kcal/mol | 0.263 ± 0.051 kcal/mol
SAGGMPVVKVTLRVELPETGETVDVTLYVDPSVPEEYLERLVRRVAEEVARLLRLPPPPVPPRPDELSAGGS [r16_191_TrMRF] | 3.29 ± 0.12 kcal/mol | 3.52 ± 0.095 kcal/mol | 3.64 ± 0.057 kcal/mol
SAGGMPYTLVGEKTESLGEGNTVVTKTYKPPDGTYTVETTTITTDPENGSTSTTSTTTTIPPNTPEALSAGG [r19_173_JUSTAS] | -1.12 ± 0.34 kcal/mol | -0.1 ± 0.31 kcal/mol | 0.334 ± 0.25 kcal/mol
SAGGMRLVFVTETPEEAEEIARELAELFPDFELEAEVREEEVLVEVPETGEVKRRPVYVLVIELRPKSAGGS [r16_828_TrMRF] | 4.29 ± 0.098 kcal/mol | 4.41 ± 0.079 kcal/mol | 4.42 ± 0.059 kcal/mol
SAGGMSITITTNAPKEVLLRFIKDLAEEIGVEVDVEVTVEPLEDGPIVTAHVHIDPKEPEVPLEELFSAGGS [r16_262_TrMRF] | 0.75 ± 0.018 kcal/mol | 0.642 ± 0.085 kcal/mol | 0.384 ± 0.074 kcal/mol
SAGGMSKEELAKKLAKELAEKLGIKEIKEIKIEKKKDKVKITIVFKENKKIIEIELKDGKIVKIKEKSAGGS [r16_171_TrROS_Hall] | 3.36 ± 0.15 kcal/mol | 3.26 ± 0.16 kcal/mol | 3.22 ± 0.16 kcal/mol
SAGGMSLHIPLPANNEELAEELAEELRDLYAAIPGTPGEVEVDIEPTPEGGYRLIVRFPDHVDEIPASAGGS [r16_356_TrMRF] | 1.3 ± 0.014 kcal/mol | 1.34 ± 0.073 kcal/mol | 1.19 ± 0.11 kcal/mol
SAGGMSPELKKNKNVEKVIYNKKTGKVFVYNKKTKKLYIFTKNGKKIEIKMSKDEVEKLLKKGFKPISAGGS [r16_745_TrROS_Hall] | 2.14 ± 0.11 kcal/mol | 2.86 ± 0.2 kcal/mol | 3.22 ± 0.16 kcal/mol
SAGGMTEELEITTPDNYKIKITKTLNPNTTKPTYTVKIYEKKSGKVLLEKEFSSLEEAEEFIKNGYGSAGGS [r8_450_TrMRF] | 4.73 ± 0.18 kcal/mol | 4.65 ± 0.069 kcal/mol | 4.596 ± 0.042 kcal/mol
SAGGMTIEEILNMSIEEVKALAEEKGLKEVVITLPDGSKITIKVNKDGSIEVTVTNKDGSKKTFTFPSAGGS [r8_51_TrROS_Hall] | 3.91 ± 0.42 kcal/mol | 4.05 ± 0.24 kcal/mol | 3.97 ± 0.1 kcal/mol
SAGGMTIEELLKKNPELKELVKKGYVIEITYPDGKKETIKISEEDLKKILDDIKKKTNKPVEIKILPSAGGS [r16_655_TrROS_Hall] | 1.05 ± 0.081 kcal/mol | 1.54 ± 0.32 kcal/mol | 1.82 ± 0.17 kcal/mol
SAGGMTIITTTFTLKLPSNGKVVTVTKTYNLSPEEGKKEAEKIAKEIAEELKEPTEILEIKITYYPESAGGS [r16_140_JUSTAS] | 1.26 ± 0.092 kcal/mol | 1.7 ± 0.27 kcal/mol | 2 ± 0.085 kcal/mol

Sequence | folding stability dG unfold [1] | folding stability dG unfold [2] | folding stability dG unfold [3]
SAGGMTIKPGETVEIEVGGKKITLTRNENGELTITIEDEETGETLTITVPKDTTLEEVLKKIEELLKSAGGS [r8_158_TrROS_Hall] | 4.04 ± 0.15 kcal/mol | 3.61 ± 0.06 kcal/mol | 3.45 ± 0.064 kcal/mol
SAGGMTITIEKEGDTLKVTITIRDAATNETYTVEATLTRKEDGSLTLEIRFEDGSTKTINLKDIKLVSAGGS [r16_154_TrROS_Hall] | 3 ± 0.21 kcal/mol | 3.76 ± 0.47 kcal/mol | 4.11 ± 0.41 kcal/mol
SAGGMTKTILIYDEETGVLVRIEIKVNPETGEIEEIKIETETLEDGTVKMKITLKDGTEIEVEIKPLPSAGG [r13_515_TrROS_Hall] | 3.45 ± 0.46 kcal/mol | 3.25 ± 0.62 kcal/mol | 3.08 ± 0.28 kcal/mol
SAGGMTLDELRALLAAGKVTIEPVAPDRWLVTVRGPDGEEFTFEFESLEELLDALRAIPGLEVEVRPVSAGG [r13_600_TrROS_Hall] | 3.29 ± 0.1 kcal/mol | 3.71 ± 0.044 kcal/mol | 3.905 ± 0.036 kcal/mol
SAGGMTLDQLKHALRHKKMQIHEPNPNGWYVTFQNPDGKPPTFPVKSDDELRDILRDAPGFEVEVQPVSAGG [r13_600_TrROS] | -0.0886 ± 0.17 kcal/mol | 0.608 ± 0.2 kcal/mol | 0.84 ± 0.16 kcal/mol
SAGGMTLEDLAGQSIEEALDLIEENGWDEVTITYPGGSKIEIKYNKDGPIEVEWENPDGNKQTFTIPSAGGS [r8_51_TrROS] | 0.644 ± 0.074 kcal/mol | 0.833 ± 0.083 kcal/mol | 0.907 ± 0.1 kcal/mol
SAGGMTLEELKEALKKLPPNVKEVKITVVEKNGKLVVVVEVNGKKLVIEFDSEEERKLAEELVKELLSSAGG [r13_287_TrROS_Hall] | 3.75 ± 0.32 kcal/mol | 3.45 ± 0.24 kcal/mol | 3.13 ± 0.16 kcal/mol
SAGGMTLEITFPPNVKKVRVEFDEETNEVKVEVEEVDGELVIRVEVPPGQELSEEELERLKKLLEELSAGGS [r16_359_TrROS_Hall] | 1.34 ± 0.037 kcal/mol | 1.65 ± 0.083 kcal/mol | 1.79 ± 0.072 kcal/mol
SAGGMTPEEKEEIAKKFAEELLKKLKEGDPNVKVETEVDPEKGVVKIKVINLNTKKPKTIEIPFSELASAGG [r13_354_TrMRF] | 1.76 ± 0.052 kcal/mol | 1.77 ± 0.1 kcal/mol | 1.83 ± 0.034 kcal/mol
SAGGMTPSVLSNLSEEERKEAVRDFIIEFIKKAFPNVPEDFSVEEVPVLVYDLKTGKLFEVTVHLEGKSAGG [r13_555_TrMRF] | 1.19 ± 0.083 kcal/mol | 1.73 ± 0.15 kcal/mol | 2.16 ± 0.1 kcal/mol
SAGGMTPVPVKLLSEESSSVSTLPNGETVTTTPSLAYSPLGFYVLTTTTTYPATPVTTTTSTVVPLSVSAGG [r19_320_JUSTAS] | 0.458 ± 0.041 kcal/mol | 0.223 ± 0.16 kcal/mol | -0.151 ± 0.22 kcal/mol
SAGGMVDVTITFTKPDGTPETRPIPASSLPLEELVARIRALREAGVEAEVELPPSLPEEVREALARLLSAGG [r13_251_JUSTAS] | 1.78 ± 0.039 kcal/mol | 1.96 ± 0.053 kcal/mol | 2.09 ± 0.071 kcal/mol
SAGGMVEIELVPMSEEELKKLREELPENEILIVVKEDGLVLIVRVEKSEEEAEKLAEELRKLLEELPSAGGS [r16_311_TrROS_Hall] | 2.05 ± 0.17 kcal/mol | 1.69 ± 0.23 kcal/mol | 0.935 ± 0.14 kcal/mol
SAGGMVEREFTLDGTRITITYVPSEGVILATFPDRTVTVPVPESLKDKSPEEVIELAKEFAKEYLESSAGGS [r16_215_JUSTAS] | 4.14 ± 0.16 kcal/mol | 3.43 ± 0.058 kcal/mol | 3.08 ± 0.041 kcal/mol
SAGGMVFKTKDGYLVRIEVFNKETGEKTEILVPEENIEELLKALESKPGVTEVKVEIYKLKDGKPEKLSAGG [r13_914_TrROS_Hall] | 0.862 ± 0.026 kcal/mol | 1.21 ± 0.095 kcal/mol | 1.38 ± 0.09 kcal/mol
SAGGMVFTITVRNPDGTVVELPFDVSDVTITPKNGDLYITVAGGKVLTLKTDEVLDIDPAAIAAANAASAGG [r13_925_JUSTAS] | 0.901 ± 0.052 kcal/mol | 1.13 ± 0.16 kcal/mol | 1.26 ± 0.14 kcal/mol
SAGGMVIEKDGDYEYVLLLVDSPEGFPVEVAKELLKKEFGLKEIKVLSAKPLPNGIRLVLVKNKFEKSAGGS [r16_234_TrMRF] | 0.875 ± 0.023 kcal/mol | 1.3 ± 0.052 kcal/mol | 1.57 ± 0.062 kcal/mol
